Biological target: soluble extracellular domain of poliovirus receptor (sPVR)
Assay: BLI

Row | Kd [µM] | Molecule
1 | 0.033 | mouse TIGIT protein (from UniProt P86176 29-148) (receptor)
2 | 6.13 | mouse CD226 protein (receptor) EETLWDTTVRLSETMTLECVYPLTHNLTQVEWTKNTGTKTVSIAVYNPNHNMHIESNYLHRVHFLNSTVGFRNMSLSFYNASEADIGIYSCLFHAFPNGPWEKKIKVVWSDSFEIAAPSDSYLSAEPGQDVTLTCQLPRTWPVQQVIWEKVQPHQVDILASCNLSQETRYTSKYLRQTRSNCSQGSMKSILIIPNAMAADSGLYRCRSEAITGKNKSFVIRLIITDGGTNKHFILP
